Source: paper PMC7618200 (The Biochemical journal, 2025)
Where two headings read alike, the source gives them in different places. Ends that are not written are not given here. Peptide text beside a SMILES is read from it. * marks the point of attachment. 5FAM = O=C1OC2(c3ccc(O)cc3Oc3cc(O)ccc32)c2ccc(C(=O)*)cc21; 5Flu = 5-carboxyfluorescein label

T1: SPOP MATH domain (SPOP^MATH; residues 28-166) (human, UniProt O43791 28-166)
T1 chain: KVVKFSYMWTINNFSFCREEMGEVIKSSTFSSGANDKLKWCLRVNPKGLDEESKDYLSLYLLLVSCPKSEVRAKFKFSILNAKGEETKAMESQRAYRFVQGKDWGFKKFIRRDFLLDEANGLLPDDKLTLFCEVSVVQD

T2: SPOP MATH domain (SPOP^MATH; residues 28-166) (human), O43791
T2 chain: T1 chain

B1: SRC-3 17-mer peptide 91NDDDVQKADVSSTGQGV107 (peptide)
peptide: NDDDVQKADVSSTGQGV
notes: also called NCoA-3; source: synthetic peptide
B2: SETD2 17-mer peptide DKGSVQAPEISSNSIKD (printed 363-1379) (peptide)
peptide: DKGSVQAPEISSNSIKD
notes: SET domain-containing protein 2 (SETD2), human; also called SET domain-containing protein 2; source: synthetic peptide
B3: Puc-5Flu peptide (SRENLACDEVTSTTSK-5Flu) (peptide)
peptide: SRENLACDEVTSTTSK(5Flu)
notes: added C-terminal lysine that carries the label; also called ^5Flu-Puc peptide; fluorescently labeled Puc peptide; source: synthetic peptide (Peptide Synthetics, Peptide Protein Research Limited)
B4: chimeric MyD88-Puc peptide AEKPLQVAAVTSTTS (peptide)
peptide: AEKPLQVAAVTSTTS
notes: Puckered (Puc) SBC; also called chimeric peptide; source: synthetic peptide (Peptide Synthetics, Peptide Protein Research Limited)
B5: Caprin1 17-mer peptide 426QPEATQVPLVSSTSEGY442 (peptide)
peptide: QPEATQVPLVSSTSEGY
notes: Caprin1, human, residues 426-442; source: synthetic peptide

Key:
[1] = molecular target: T3, SPOP^MATH (SPOP MATH domain) (Homo sapiens, UniProt O43791); test: FP competition assay: unlabelled peptide versus Puc-5Flu peptide on SPOP^MATH; assay type: binding; conditions: read-out: IC50, FP competition, MyD88 peptides of varying length (Figure 1F)
T3 construct: bacterially expressed SPOP protein (SPOP^MATH); hexahistidine-MBP (with HRV 3C site) (N, cleaved yes); made in house; host or cells: E. coli BL21 (DE3); tracer peptide synthesized by Peptide Synthetics
Description: (§1) Peptides and SPOP^MATH protein were diluted in FP buffer (50 mM HEPES pH 7.5, 100 mM NaCl, 1 mM TCEP, 0.005% Tween-20). Measurements were made in 384-well black flat-bottom low-flange plates (Corning) using 20 μl reaction volumes. Plates were equilibrated at room temperature for 30 minutes before reading. Millipolarization (mP) measurements were taken in a Hidex Sense microplate reader (Hidex) at 25°C, with excitation at 490 nm (20 nm filter), emission at 520 nm (14 nm filter), and a G-factor of 1.
The technical duplicate mP values were averaged, and error bars represent standard deviation. Data were plotted and analyzed using Prism 9 software. […] IC50 values from three independent experiments were averaged and the standard deviation was calculated.

[2] = molecular target: Pdx1 15-mer peptide, fluorescently labeled (SPOP-binding region of pancreas/duodenum homeobox protein 1) (not stated (Figure 5A aligns a Homo sapiens and a Mesocricetus auratus sequence)); test: fluorescence polarisation; two-fold dilution series of SPOP^MATH mixed with a constant 6-50 nM 5Flu-labeled peptide; 50 mM HEPES pH 7.5, 100 mM NaCl, 1 mM TCEP, 0.005% Tween-20; 25°C; one-site total binding fit; mean of three independent experiments
[3] = molecular target: T3, SPOP^MATH (SPOP MATH domain); test: Fluorescence polarization (FP) binding of 5Flu-labelled peptides to SPOP^MATH; conditions: FP direct binding; 6-50 nM 5Flu-peptide, two-fold dilution series of SPOP^MATH; 50 mM HEPES pH 7.5, 100 mM NaCl, 1 mM TCEP, 0.005% Tween-20; 30 min at room temperature, read at 25°C; one-site total binding fit; mean ± SD of three independent experiments; ~ = estimated; read-out: Kd, binding of fluorescently (5Flu) labeled peptide to SPOP^MATH
Description: as §1

[4] = molecular target: T1, SPOP MATH domain (SPOP^MATH; residues …); test: FP
[5] = molecular target: T4, SPOP MATH domain (SPOP^MATH; residues 28-166) (human, UniProt O43791 28-166); test: fluorescence polarisation; competition: two-fold dilution series of unlabeled peptide with 50 nM Puc-5Flu peptide and 5 μM SPOP^MATH; 50 mM HEPES pH 7.5, 100 mM NaCl, 1 mM TCEP, 0.005% Tween-20; 25°C; conditions: both partners purified
T4 construct: the methods print 28-116; Cleaved with HRV 3C protease; also called speckle-type BTB/POZ protein MATH domain; source: E. coli BL21 (DE3), purified (Ni-NTA, tag cleavage, reverse Ni-NTA, SEC); not shown: His6, N-terminal, cleaved; MBP, N-terminal, cleaved

[6] = molecular target: T4, SPOP MATH domain (SPOP^MATH; residues …); test: fluorescence polarisation; two-fold dilution series of SPOP^MATH mixed with a constant 6-50 nM 5Flu-labeled peptide; 50 mM HEPES pH 7.5, 100 mM NaCl, 1 mM TCEP, 0.005% Tween-20; 25°C; one-site total binding fit; mean of three independent experiments; conditions: both partners purified
[7] = molecular target: T1, SPOP MATH domain (SPOP^MATH; residues …); test: FP
[8] = molecular target: T2, SPOP MATH domain (SPOP^MATH; residues …); test: FP; conditions: modification not given

Row | Molecule | IC50 [4] [µM] | binding result [5] | also measured
1 | CC(C)C[C@H](NC(=O)[C@@H]1CCCN1)C(=O)N[C@@H](CCC(N)=O)C(=O)N[C@H](C(=O)N[C@@H](C)C(=O)N[C@@H](C)C(=O)N[C@H](C(=O)N[C@@H](CC(=O)O)C(=O)N[C@@H](CO)C(=O)N[C@@H](CO)C(=O)N[C@H](C(=O)N1CCC[C@H]1C(=O)N[C@@H](CCCNC(=N)N)C(=O)N[C@H](C(=O)O)[C@@H](C)O)C(C)C)C(C)C)C(C)C | – | – | IC50 [1]: ~0.518 mM
2 | AEKPLQVAAVAAAVPRT | – | – | IC50 [1]: ~2.11 mM
3 | SPOP MATH domain (SPOP^MATH; residues 28-166) (from UniProt O43791 28-166) (domain or fragment) | – | – | Kd [2]: 48 µM
4 | CC(C)[C@H](NC(=O)c1ccc2c(c1)C(=O)OC21c2ccc(O)cc2Oc2cc(O)ccc21)C(=O)N[C@@H](C)C(=O)N[C@@H](CCC(=O)O)C(=O)N1CCC[C@H]1C(=O)N[C@@H](CCC(=O)O)C(=O)N[C@@H](CCC(N)=O)C(=O)N[C@@H](CC(=O)O)C(=O)N[C@@H](CS)C(=O)N[C@@H](C)C(=O)N[C@H](C(=O)N[C@H](C(=O)N[C@@H](CO)C(=O)NCC(=O)N[C@@H](CCC(=O)O)C(=O)N[C@@H](CCC(=O)O)C(=O)O)[C@@H](C)O)C(C)C (5FAM-VAEPEQDCAVTSGEE-OH) | – | – | Kd [3]: ~48 µM
5 | B1 | 16.9 | binds | –
6 | B2 | ~699 | binds | –
7 | B3 | – | – | Kd [6]: 1100 nM
8 | LVSSTSEGY [Caprin1 9-mer peptide] | ~773 | – | –
9 | SRENLACDEVTSTTS [Puc peptide (unlabeled competitor; natural Puc peptide)] | – | – | IC50 [7]: 98.6 µM
10 | AEKPLQVAAVAAAVPRT […] | – | – | IC50 [8]: 2.11 mM
11 | DTDNLQSEQLSSSSDGS [SENP7 17-mer peptide] | ~2400 | – | –
12 | B4 | – | binds | –
13 | B5 | 2.6 | binds | –
